Reference: the supplement of paper PMC7877785
± gives the uncertainty stated by the source.

Experiment: self-splicing fitness, log relative to wild type (ln ratio); higher = more splicing; Tetrahymena group I intron in knt gene, E. coli kanamycin selection, DiMSum; sequences stand for … in CUCUCU…GGAGGGAAAAGUUAUCAGGCAUGCACCUGGUAGCUAGUCUUUAAACCAAUAGAUUGCAUCGGUUUAAAAGGCAAGACCGUCAAAUUGCGGGAAAGGGGUCAACAGCCGUUCAGUACCAAGUCUCAGGGGAAACUUUGAGAUGGCCUUGCAAAGGGUAUGGUAAUAAGCUGACGGACAUGGUCCUAACCACGCAGCCAAGUCCUAAGUCAACAGAUCUUCUGUUGAUAUGGAUGCAGUUCACAGACUAAAUGUCGGUCGGGGAAGAUGUAUUCUUCUCAUAAGAUAUAGUCGGACCUCUCCUUAAUGGGAGCUAGCGGAUGAAGUGAUGCAACACUGGAGCCGCUGGGAACUAAUUUGUAUGCGAAAGUAUAUUGAUUAGUUUUGGAGUACUCGUGGUCG
How it was run: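 DiMSum derived fitness as the error-weighted combination of fold changes across replicates, kanamycin versus no kanamycin, normalised to wild type. E. coli BL21(DE3) held the library, which randomised all eight P1ex-region intron nucleotides within the knt kanamycin-resistance gene on pET-22b(+). Six replicate transformations grew overnight at 37°C or 30°C on LB agar with or without 25 μg/mL kanamycin, also containing 100 μg/mL carbenicillin, 50 μM IPTG and 0.2% rhamnose, and pooled colonies were amplicon-sequenced on an Illumina HiSeq 2500.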

Row | Sequence | self-splicing fitness (ln) (30 °C) | self-splicing fitness (ln) (37 °C)
1 | GAGGAGCAAUAUUACGCGUG | -1.55 ± 0.19 | -0.66 ± 0.23
2 | CCCCAGCAAUAUUACGCGAU | -4.32 ± 0.25 | -2.36 ± 0.28
3 | CCCGAGCAAUAUUACGGUCC | -2.99 ± 0.26 | -2.61 ± 0.22
4 | UGUCAGCAAUAUUACGAACC | -0.269 ± 0.27 | -0.024 ± 0.26
5 | GGAGAGCAAUAUUACGGAGA | -2.3 ± 0.29 | 
6 | AUCGAGCAAUAUUACGCGUU | -2.01 ± 0.17 | -1.1 ± 0.17
7 | GGACAGCAAUAUUACGUCGU | -1.45 ± 0.071 | -0.405 ± 0.075
8 | UAAAAGCAAUAUUACGAAUU | -3.12 ± 0.15 | -1.95 ± 0.18
9 | CCGCAGCAAUAUUACGCGAA | -2.87 ± 0.18 | -2.5 ± 0.18
10 | CAGCAGCAAUAUUACGACCU | -2.57 ± 0.14 | -1.57 ± 0.12
11 | CAACAGCAAUAUUACGUUAU | -3.16 ± 0.13 | -1.94 ± 0.13
12 | GACAAGCAAUAUUACGUUGG | -3.26 ± 0.11 | -2.56 ± 0.14
13 | CCUUAGCAAUAUUACGGGUG | -1.5 ± 0.065 | -0.759 ± 0.081
14 | GGGCAGCAAUAUUACGUUCU | -2.35 ± 0.19 | -1.2 ± 0.14
15 | UUCCAGCAAUAUUACGUGCU | -4.4 ± 0.34 | -3.29 ± 0.29
16 | ACAGAGCAAUAUUACGGAGU | -3.05 ± 0.23 | -3.24 ± 0.35
17 | AUCUAGCAAUAUUACGCGGG | -3.32 ± 0.26 | -2.12 ± 0.23
18 | CGUAAGCAAUAUUACGUGAC | -3.04 ± 0.15 | -2.33 ± 0.18
19 | CUAUAGCAAUAUUACGGUAA | -3.01 ± 0.23 | -1.69 ± 0.18
20 | CCGUAGCAAUAUUACGAGCG | -0.86 ± 0.12 | -0.719 ± 0.15
21 | ACAUAGCAAUAUUACGGAGU | -3.73 ± 0.12 | -2.55 ± 0.13
22 | GGUCAGCAAUAUUACGGGGC | -4.04 ± 0.33 | -1.11 ± 0.4

Row | Sequence | self-splicing fitness (ln) (30 °C) | self-splicing fitness (ln) (37 °C)
23 | GUGGAGCAAUAUUACGGUGA |  | -1.81 ± 0.49
24 | UGCAAGCAAUAUUACGCGCA | -2.17 ± 0.23 | -1.86 ± 0.29
25 | AAGUAGCAAUAUUACGCUCG | -0.592 ± 0.13 | -0.234 ± 0.17
26 | GGGAAGCAAUAUUACGGAAA | -1.4 ± 0.32 | -1.41 ± 0.36
27 | AAUAAGCAAUAUUACGAAAU | -2.34 ± 0.14 | -1.4 ± 0.15
28 | GCCGAGCAAUAUUACGGGCA | -2.24 ± 0.25 | -0.776 ± 0.17
29 | ACUAAGCAAUAUUACGACGA | 0.0648 ± 0.13 | 0.181 ± 0.13
30 | AACGAGCAAUAUUACGUGGA | -2.62 ± 0.33 | -2.15 ± 0.19
31 | AAAUAGCAAUAUUACGGUUC | -1.21 ± 0.11 | -0.851 ± 0.16
32 | GUUAAGCAAUAUUACGAUGG |  | -1.77 ± 0.23
33 | UCCUAGCAAUAUUACGAGUG | -2.1 ± 0.1 | -0.96 ± 0.1
34 | UAAAAGCAAUAUUACGUUGA | -2.41 ± 0.11 | -1.46 ± 0.11
35 | UAAUAGCAAUAUUACGCGCA | -1.13 ± 0.086 | 0.129 ± 0.1
36 | CCCCAGCAAUAUUACGAGGU | -3.6 ± 0.12 | -2.23 ± 0.12
37 | AAGCAGCAAUAUUACGUGGC | -4.15 ± 0.39 | -1.92 ± 0.2
38 | UCGAAGCAAUAUUACGCAAA |  | -3.16 ± 0.4
39 | AUUGAGCAAUAUUACGAACA | -3.6 ± 0.32 | -2.75 ± 0.25
40 | CUACAGCAAUAUUACGUAGG | -1.39 ± 0.059 | -1.14 ± 0.093
41 | CUCCAGCAAUAUUACGAGGA | -2.35 ± 0.11 | -2.99 ± 0.18
42 | AAGUAGCAAUAUUACGUCGC | -2.54 ± 0.25 | -1.8 ± 0.23
43 | CAUAAGCAAUAUUACGUUCU | -3.28 ± 0.23 | -3.1 ± 0.3
